Measured values published in patent US20260207759A1, “COMPOSITION OF CD40-BINDING MOLECULE AND PHARMACEUTICAL USE THEREOF” (SUZHOU SUNCADIA BIOPHARMACEUTICALS CO., LTD., priority 2022, published 2026).

Experiments:
[1] = mouse, in vivo, ip, 10 mg/kg
Procedure: After arrival, the animals were acclimatized for 7 days and randomly grouped. On day 0 of the experiment, each group of mice was intraperitoneally injected with the anti-CD40 antibody at 10 mg/kg. 100-150 μL of blood samples were collected at 15 min, 4 h, and 8 h after administration, and on days 1, 2, 4, 7, 10, and 14 after administration, anticoagulated with 10 μL of EDTA-K2 (0.1 M), and stored on ice. Mouse plasma was assayed by ELISA for antibody concentration at different time points. The assay is specifically as follows: A goat anti-human IgG Fc antibody (Rockland, Cat. #609-101-017) was diluted to 2.5 μg/mL with PBS and added to a 96-well plate at 50 μL/well, and the plate was incubated overnight at 4° C. After three washes with a washing buffer, 50 μL of blocking solution was added to each well, and the plate was incubated at 37° C. for 1 h. The mouse plasma and the standard curve of the test antibody were added, and the plate was incubated at 37° C. for 2 h. After three washes with the washing buffer, anti-hlgG Fab-HRP (Sigma, Cat. #A0293, 1:10,000) was added at 50 μL/well, and the plate was incubated at room temperature for 1 h. The plate was washed three times with the washing buffer. TMB was added at 100 μL/well, and the mixtures were left to react in the dark for 5 min. 0.16 M sulfuric acid was added at 100 μL/well. The OD value at 450 nm was measured with an Envision microplate reader, and the concentrations of CD40 antagonistic antibodies were calculated.

CD40 [2] = biological target: T1, CD40 (Homo sapiens, UniProt P25942); assay: SPR (Biacore) affinity of anti-CD40 antibodies for human CD40; type: binding; design: Glu21-Arg193; purchased Acrobiosystems Inc. CD0-H5228; conditions: mobile phase Human CD40
Procedure: The test antibody was affinity-captured on an anti-human Fc chip, and a series of concentrations of His-tagged human or cynomolgus monkey CD40 antigen were allowed to flow over the chip surface. Reaction signals were detected in real time using a Biacore instrument, and thus association and dissociation curves were obtained. The buffer used in the experiment was HBS-EP+10× buffer solution (Cat. #BR-1006-69, GE) diluted to 1×(pH 7.4) with D. I. Water. Fitting was performed on the data obtained from the experiment using a (1:1) Binding model to obtain affinity values.
Target sequence in this assay (P25942 21-193): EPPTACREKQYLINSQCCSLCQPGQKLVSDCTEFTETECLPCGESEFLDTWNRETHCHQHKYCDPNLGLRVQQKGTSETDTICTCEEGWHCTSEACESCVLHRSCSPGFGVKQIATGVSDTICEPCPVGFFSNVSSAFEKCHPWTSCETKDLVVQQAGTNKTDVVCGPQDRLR

CD40 [3] = biological target: T1, CD40; assay: B cell activation assay system (human PBMCs, CD40L-induced CD19+CD69+); type: cell-based; design: endogenous in cells; host or cells: human PBMCs (B cells); DCs differentiated from human CD14+ monocytes; conditions: CD40L stimulation overnight
Procedure: CD40 is highly expressed in B cells, and CD40L, upon binding to CD40, can induce B cell activation and up-regulate the expression of a series of activation markers. CD40 antagonistic antibodies block the binding of CD40L to CD40, thereby eliminating the immune activation process of B cells.
Human PBMCs were plated at 2E5 cells/well and 50 μL/well into a 96-well cell culture plate (the medium was RPMI-1640 containing 10% FBS and 1% penicillin-streptomycin). Serially diluted test antibodies were added at 50 μL/well, and the cells were co-incubated at 37° C. in 5% CO2 for 0.5 h. CD40L-his and an anti-His antibody were added to each well for overnight stimulation. The following day, the plate was centrifuged, the supernatant was removed, and the cells were washed twice with FACS buffer and stained at room temperature for 15 min with 100 μL of Fixable viability dye EF780 (Invitrogen, 65086514) diluted at 1:1000. The cells were washed twice and then blocked at room temperature for 10 min with 100 μL of human Fc blocker (BD, 564220) diluted at 1:200. After centrifugation, the cells were incubated at 4° C. for 0.5 h with flow cytometry antibodies (PerCP/Cyanine5.5 anti-human CD19 (Biolegend, 302230), and APC anti-human CD69 (Biolegend, 310910)) diluted at 1:200. After centrifugation, the supernatant was removed, the cells were washed twice with FACS buffer and then resuspended in 200 μL of PBS, and the fluorescence intensity on the cell surface was measured by a flow cytometer (BD FACS Celesta).
With reference to the method in Example 10, the inhibitory activity of the anti-CD40 antibody 9E6-L4H2-AAYTE carrying the AAYTE mutation in the Fc in the B cell activation assay system was measured.
Target sequence in this assay (P25942 21-277): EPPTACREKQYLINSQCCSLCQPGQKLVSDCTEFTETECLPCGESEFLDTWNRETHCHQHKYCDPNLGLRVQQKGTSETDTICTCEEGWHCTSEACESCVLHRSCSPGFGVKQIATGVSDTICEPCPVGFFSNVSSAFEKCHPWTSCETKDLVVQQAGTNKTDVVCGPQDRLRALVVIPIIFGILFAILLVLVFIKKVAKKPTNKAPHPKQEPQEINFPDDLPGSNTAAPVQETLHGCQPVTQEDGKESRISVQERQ

CD40 [4] = biological target: T1, CD40; assay: DC cell activation assay system (monocyte-derived DC, CD40L-induced CD80/CD86, IL-12/23 p40, TNFα); type: cell-based; design: endogenous in cells; host or cells: human PBMCs (B cells); DCs differentiated from human CD14+ monocytes
Excerpt: CD40 is highly expressed on dendritic cells (DCs), and CD40L, upon binding to CD40, can induce DC activation, up-regulate the expression of multiple activation markers on the DC cell surface, and promote the secretion of multiple inflammatory factors from DCs, further amplifying immune responses. CD40 antagonistic antibodies block the binding of CD40L to CD40, thereby eliminating the immune activation process of DC cells.
Monocytes were sorted and enriched from fresh primary human peripheral blood PBMCs using the EsaySep™ human CD14 sorting kit (Stemcell, 19359), and differentiated for 6 days with RPMI-1640 medium (10% FBS and 1% penicillin-streptomycin), 50 ng/ml IL-4 (PeproTech, 200-04), and 50 ng/mL GM-CSF (PeproTech, 300-03). On day 7, the differentiated DC cells were plated at 1E5/well into a 96-well cell culture plate. Serially diluted test antibodies were added to the wells, and the cells were co-incubated at 37° C. in 5% CO2 for 0.5 h. CD40L-his and an anti-His antibody were then added to each well at final concentrations. After 48 h of culture, the level of DC cell activation was measured by flow cytometry: after centrifugation, the supernatant was removed, and the cells were washed twice with FACS buffer (PBS+2% FBS) and stained at room temperature for 15 min with 100 μL of Fixable viability dye EF780 (Invitrogen, 65086514) diluted at 1:1000. The cells were washed twice and then blocked at room temperature for 10 min with 100 μL of human Fc blocker (BD, 564220) diluted at 1:200. After centrifugation, the cells were incubated at 4° C. for 0.5 h with flow cytometry antibodies (Alexa Fluor® 700 anti-human CD11c (Biolegend, 337220), Brilliant Violet 421™ anti-human CD80 (Biolegend, 305221), and APC anti-human CD86 (Biolegend, 305412)) diluted at 1:200. After centrifugation, the supernatant was removed, the cells were washed twice with FACS buffer and then resuspended in 200 μL of PBS, and the fluorescence intensity on the cell surface was measured by a flow cytometer (BD FACS Celesta).
In addition, the level of cytokine secretion in the supernatant was measured after 24 h (TNFα, Cisbio, 62[…]) and 48 h (IL-12/23 p40, Novus, VAL121) of culture.
With reference to the method in Example 11, the inhibitory activity of the anti-CD40 antibody 9E6-L4H2-AAYTE carrying the AAYTE mutation in the Fc in the DC cell activation assay system was measured.
Target sequence in this assay (P25942 21-277): as above

## CFZ533: anti-CD40 antagonistic antibody CFZ533 (i.e., iscalimab), positive control, variable regions from U.S. Pat. No. 8,277,810B
[1]
  AUC(0-d14)((h) * (mg/L)): 12655 (h) * (mg/L)
  C max: 75.95 µg/mL
  T1/2: 214.8 h
CD40 [2]
  Ka: 688000 M⁻¹ s⁻¹
  Kd: 0.205 nM
  koff (dissociation rate constant, 1/s): 0.000141 s⁻¹
CD40 [3]
  CD19+CD69+ % Maximum inhibition rate: 95%
  CD19+CD69+ MFI Maximum inhibition rate: 110%
CD40 [3]; read-out: CD19+CD69+ % IC50
  IC50: 0.14 nM
CD40 [3]; read-out: CD19+CD69+ MFI IC50
  IC50: 0.07 nM
CD40 [4]; 48 h, read-out: IC50 (nM) in DC cell activation assay system, CD80 MFI
  IC50: 1.19 nM
CD40 [4]; 48 h, read-out: IC50 (nM) in DC cell activation assay system, CD86 MFI
  IC50: 1.93 nM
CD40 [4]; supernatant, 24 h, read-out: IC50 (nM) in DC cell activation assay system, TNFα
  IC50: 0.35 nM
CD40 [4]; supernatant, 48 h, read-out: IC50 (nM) in DC cell activation assay system, IL-12/23 p40
  IC50: 0.68 nM
